From the supplement of paper PMC7877785
± gives the uncertainty stated by the source.

Experiment: self-splicing fitness, log relative to wild type (ln ratio); higher = more splicing; Tetrahymena group I intron in knt gene, E. coli kanamycin selection, DiMSum; sequences stand for … in CUCUCU…GGAGGGAAAAGUUAUCAGGCAUGCACCUGGUAGCUAGUCUUUAAACCAAUAGAUUGCAUCGGUUUAAAAGGCAAGACCGUCAAAUUGCGGGAAAGGGGUCAACAGCCGUUCAGUACCAAGUCUCAGGGGAAACUUUGAGAUGGCCUUGCAAAGGGUAUGGUAAUAAGCUGACGGACAUGGUCCUAACCACGCAGCCAAGUCCUAAGUCAACAGAUCUUCUGUUGAUAUGGAUGCAGUUCACAGACUAAAUGUCGGUCGGGGAAGAUGUAUUCUUCUCAUAAGAUAUAGUCGGACCUCUCCUUAAUGGGAGCUAGCGGAUGAAGUGAUGCAACACUGGAGCCGCUGGGAACUAAUUUGUAUGCGAAAGUAUAUUGAUUAGUUUUGGAGUACUCGUGGUCG
Outline: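 Fitness was computed with DiMSum as the error-weighted combination of replicate fold changes, kanamycin versus none, each normalised to wild type. The library randomised all eight intron nucleotides of the P1ex region, with the intron placed in the knt kanamycin-resistance gene on pET-22b(+) in E. coli BL21(DE3). Six replicate transformations were grown overnight at 37°C or 30°C on LB agar with or without 25 μg/mL kanamycin, plus 100 μg/mL carbenicillin, 50 μM IPTG and 0.2% rhamnose. Pooled colonies were amplicon-sequenced on an Illumina HiSeq 2500.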

| Sequence | self-splicing fitness (ln) (30 °C) | self-splicing fitness (ln) (37 °C) |
| --- | --- | --- |
| AGCUAGCAAUAUUACGUCGG | -2.97 ± 0.3 | -1.32 ± 0.26 |
| UUAUAGCAAUAUUACGGUAA | -1.31 ± 0.17 | -0.924 ± 0.17 |
| GCUAAGCAAUAUUACGAAGG | -1.85 ± 0.11 | -0.743 ± 0.16 |
| GUGCAGCAAUAUUACGAGAC | -2.12 ± 0.13 | -1.53 ± 0.12 |
| AAAUAGCAAUAUUACGGUCA | -0.724 ± 0.069 | 0.0582 ± 0.071 |
| CUCGAGCAAUAUUACGAAAG | -2.85 ± 0.14 | -1.58 ± 0.15 |
| CAAAAGCAAUAUUACGAGCA | -2.5 ± 0.14 | -1.97 ± 0.14 |
| AGGCAGCAAUAUUACGAACC | -0.0701 ± 0.18 | -1.03 ± 0.2 |
| AAUUAGCAAUAUUACGCUAU | -2.55 ± 0.26 | -1.97 ± 0.31 |
| GUAGAGCAAUAUUACGAAGC | -2.62 ± 0.24 | -0.723 ± 0.26 |
| CGACAGCAAUAUUACGAGAA |  | -2.41 ± 0.23 |
| ACAGAGCAAUAUUACGCGCA | -3.09 ± 0.26 | -0.798 ± 0.18 |
| GCAUAGCAAUAUUACGAUAA | -2.1 ± 0.15 | -1.27 ± 0.13 |
| GUGUAGCAAUAUUACGUAAA | -2.96 ± 0.21 | -0.326 ± 0.15 |
| AACGAGCAAUAUUACGCUAG | -3.61 ± 0.25 | -2.92 ± 0.43 |
| UCUGAGCAAUAUUACGAGGC | -2.78 ± 0.35 | -2.39 ± 0.26 |
| GAUGAGCAAUAUUACGGCGU | -0.735 ± 0.11 | -0.736 ± 0.13 |
| GCCAAGCAAUAUUACGUCGU | -0.691 ± 0.058 | -0.359 ± 0.066 |
| CACCAGCAAUAUUACGCGCU | -3.42 ± 0.14 | -2.59 ± 0.16 |
| UUAGAGCAAUAUUACGAGCG | -0.362 ± 0.17 | -0.824 ± 0.25 |
| ACGAAGCAAUAUUACGGCGC | -0.589 ± 0.086 | -0.278 ± 0.12 |
| CCGAAGCAAUAUUACGGCCU | -3.94 ± 0.36 | -2.02 ± 0.33 |
| GGACAGCAAUAUUACGUCCA | -1.24 ± 0.13 | -0.889 ± 0.16 |
| UUAGAGCAAUAUUACGGCAG | -1.01 ± 0.18 | -0.707 ± 0.24 |
| ACCAAGCAAUAUUACGCUAU | -1.66 ± 0.087 | -0.775 ± 0.098 |

| Sequence | self-splicing fitness (ln) (30 °C) | self-splicing fitness (ln) (37 °C) |
| --- | --- | --- |
| CGUCAGCAAUAUUACGCCUC |  | -3.1 ± 0.34 |
| GCAGAGCAAUAUUACGUCAG |  | -2.97 ± 0.29 |
| GGGUAGCAAUAUUACGCUAA | -1.32 ± 0.29 | -0.0326 ± 0.25 |
| UUCUAGCAAUAUUACGUAUG | -3 ± 0.17 | -1.8 ± 0.17 |
| CGCAAGCAAUAUUACGAUGA | -0.874 ± 0.064 | -0.853 ± 0.071 |
| AGAGAGCAAUAUUACGUGGG | -3.01 ± 0.17 | -2.71 ± 0.28 |
| UGGGAGCAAUAUUACGACUG | -0.532 ± 0.39 | -1.31 ± 0.47 |
| AGCGAGCAAUAUUACGUGUU | -3.06 ± 0.16 | -2.79 ± 0.26 |
| UACCAGCAAUAUUACGGAUC | -1.46 ± 0.058 | 0.242 ± 0.084 |
| ACCUAGCAAUAUUACGCUCC | -1.55 ± 0.14 | -0.204 ± 0.12 |
| CGAUAGCAAUAUUACGUGCU | -3.92 ± 0.34 | -1.34 ± 0.17 |
| CGGCAGCAAUAUUACGUGGU | -4.44 ± 0.25 | -1.93 ± 0.12 |
| GGCGAGCAAUAUUACGACAG | -3.57 ± 0.32 |  |
| CGGAAGCAAUAUUACGUCUG | -3.74 ± 0.2 | -2.46 ± 0.19 |
| ACAGAGCAAUAUUACGUUAG | -3.09 ± 0.16 | -2.87 ± 0.2 |
| AUACAGCAAUAUUACGCUUC | -3.06 ± 0.17 | -3.25 ± 0.24 |
| UUCGAGCAAUAUUACGGGUC | -3.03 ± 0.38 | -2.89 ± 0.43 |
| AGAUAGCAAUAUUACGAACU | -0.83 ± 0.16 | 0.533 ± 0.17 |
| UGAGAGCAAUAUUACGAUAU |  | -2.8 ± 0.44 |
| AGGAAGCAAUAUUACGAAAC | -2.83 ± 0.38 |  |
| AAAGAGCAAUAUUACGCCUA | -2.22 ± 0.21 | -1.81 ± 0.25 |
| GCCCAGCAAUAUUACGGGCA | -2.35 ± 0.2 | -2.69 ± 0.21 |
| GAGGAGCAAUAUUACGGGCU | -2.72 ± 0.48 | -1.83 ± 0.29 |
| GAGAAGCAAUAUUACGUGAU | -1.81 ± 0.084 | -0.801 ± 0.11 |
